From paper PMC11491553, “Structural insights into the mechanotransducing mechanism of FtsEX in cell division” (MedComm, 2024)

Target: the molecule itself
Assay: cryo-EM structure; FtsE(E163Q)X with endogenously captured ATP, reconstituted into lipid nanodiscs (MSP1D1, E. coli polar extract, 1:2:200); 2.6 Å

Protein	stoichiometry N
FtsE(E163Q) (enzyme, E. coli K12, gene amplified from genomic DNA; The gene was amplified from genomic DNA and no truncation is mentioned; Removal of the 8×His-SUMO fusion from FtsE is not described; the complex with EnvC was recaptured on nickel; Retains endogenously captured ATP; also called NBD; FtsE of FtsE(E163Q)X; not shown: 8×His, N-terminal, kept) IRFEHVSKAYLGGRQALQGVTFHMQPGEMAFLTGHSGAGKSTLLKLICGIERPSAGKIWFSGHDITRLKNREVPFLRRQIGMIFQDHHLLMDRTVYDNVAIPLIIAGASGDDIRRRVSAALDKVGLLDKAKNFPIQLSGGEQQRVGIARAVVNKPAVLLADQPTGNLDDALSEGILRLFEEFNRVGVTVLMATHDINLISRRSYRMLTLSDGHLHGGVGHE	2
FtsX (natural protein, E. coli K12, FtsX, E. coli K12, integral membrane protein of FtsEX (four transmembrane helices, periplasmic loop domain); gene amplified from genomic DNA; The gene was amplified from genomic DNA and no truncation or tag on FtsX is mentioned; also called FtsX of FtsEX; TMDs and PLDs) RFRKSVGGSGDGGRNAPKRAKSSPKPVNRKTNVFNEQVRYAFHGALQDLKSKPFATFLTVMVIAISLTLPSVCYMVYKNVNQAATQYYPSPQITVYLQKTLDDDAAAGVVAQLQAEQGVEKVNYLSREDALGEFRNWSGFGGALDMLEENPLPAVAVVIPKLDFQGTESLNTLRDRITQINGIDEVRMDDSWFARLAALTGLVGRVSAMIGVLMVAAVFLVIGNSVRLSIFARRDSINVQKLIGATDGFILRPFLYGGALLGFSGALLSLILSEILVLRLSSAVAEVAQVFGTKFDINGLSFDECLLLLLVCSMIGWVAAWLATVQHLRHFTPE	2
